Columns and labels:
P11SHb = target: T1, P11SHb; test: two-hybrid library CCNG1;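 also: natural log of median RNA to DNA barcode read ratio; higher means stronger binding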
T1 chain: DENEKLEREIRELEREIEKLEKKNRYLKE

P1SHb = target: T2, P1SHb; test: two-hybrid library CCNG1;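 also: natural log of median RNA to DNA barcode read ratio; higher means stronger binding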
T2 chain: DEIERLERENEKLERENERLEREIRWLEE

P10SHb = target: T3, P10SHb; test: two-hybrid library CCNG1;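 also: natural log of median RNA to DNA barcode read ratio; higher means stronger binding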
T3 chain: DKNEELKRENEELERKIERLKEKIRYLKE

P5SHb = target: T4, P5SHb; test: two-hybrid library CCNG1;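 also: natural log of median RNA to DNA barcode read ratio; higher means stronger binding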
T4 chain: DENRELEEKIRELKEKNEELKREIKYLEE

P8SHb = target: T5, P8SHb; test: two-hybrid library CCNG1;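 also: natural log of median RNA to DNA barcode read ratio; higher means stronger binding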
T5 chain: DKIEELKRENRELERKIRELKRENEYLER

P3SHb = target: T6, P3SHb; test: two-hybrid library CCNG1;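 also: natural log of median RNA to DNA barcode read ratio; higher means stronger binding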
T6 chain: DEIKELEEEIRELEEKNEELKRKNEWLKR

P6SHb = target: T7, P6SHb; test: two-hybrid library CCNG1
T7 chain: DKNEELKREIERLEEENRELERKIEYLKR

P9SHb = target: T8, P9SHb; test: two-hybrid library CCNG1
T8 chain: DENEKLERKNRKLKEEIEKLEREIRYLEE

P4SHb = target: T9, P4SHb; test: two-hybrid library CCNG1
T9 chain: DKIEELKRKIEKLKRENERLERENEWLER

P7SHb = target: T10, P7SHb; test: two-hybrid library CCNG1
T10 chain: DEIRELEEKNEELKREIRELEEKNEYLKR

P2SHb = target: T11, P2SHb; test: two-hybrid library CCNG1
T11 chain: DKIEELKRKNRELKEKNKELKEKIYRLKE

P12SHb = target: T12, P12SHb; test: two-hybrid library CCNG1
T12 chain: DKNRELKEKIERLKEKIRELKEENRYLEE

4H3364-bN = target: T13, 4H3364-bN; test: two-hybrid library CCNG1
T13 chain: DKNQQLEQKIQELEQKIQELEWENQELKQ

4H2931-bN = target: T14, 4H2931-bN; test: two-hybrid library CCNG1
T14 chain: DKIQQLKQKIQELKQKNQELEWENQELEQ

4H3381-bN = target: T15, 4H3381-bN; test: two-hybrid library CCNG1
T15 chain: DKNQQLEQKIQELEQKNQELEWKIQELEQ

4H3041-bN = target: T16, 4H3041-bN; test: two-hybrid library CCNG1
T16 chain: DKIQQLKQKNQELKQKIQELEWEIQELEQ

4H264-bN = target: T17, 4H264-bN; test: two-hybrid library CCNG1
T17 chain: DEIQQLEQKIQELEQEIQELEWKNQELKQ

4H796-bN = target: T18, 4H796-bN; test: two-hybrid library CCNG1
T18 chain: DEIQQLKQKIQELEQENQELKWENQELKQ

P10A-bN = target: T19, P10A-bN; test: two-hybrid library CCNG1
T19 chain: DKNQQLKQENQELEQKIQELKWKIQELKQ

4H56-bN = target: T20, 4H56-bN; test: two-hybrid library CCNG1
T20 chain: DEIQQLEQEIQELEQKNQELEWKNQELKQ

4H730-bN = target: T21, 4H730-bN; test: two-hybrid library CCNG1
T21 chain: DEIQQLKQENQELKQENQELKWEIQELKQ

4H949-bN = target: T22, 4H949-bN; test: two-hybrid library CCNG1
T22 chain: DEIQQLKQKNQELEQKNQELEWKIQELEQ

4H2859-bN = target: T23, 4H2859-bN; test: two-hybrid library CCNG1
T23 chain: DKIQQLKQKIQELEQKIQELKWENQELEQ

4H932-bN = target: T24, 4H932-bN; test: two-hybrid library CCNG1
T24 chain: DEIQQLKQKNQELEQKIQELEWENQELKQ

4H2760-bN = target: T25, 4H2760-bN; test: two-hybrid library CCNG1
T25 chain: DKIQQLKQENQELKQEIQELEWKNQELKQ

4H3297-bN = target: T26, 4H3297-bN; test: two-hybrid library CCNG1
T26 chain: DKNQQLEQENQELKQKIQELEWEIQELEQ

4H570-bA = target: T27, 4H570-bA; test: two-hybrid library CCNG1
T27 chain: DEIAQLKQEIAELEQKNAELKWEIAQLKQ

4H349-bN = target: T28, 4H349-bN; test: two-hybrid library CCNG1
T28 chain: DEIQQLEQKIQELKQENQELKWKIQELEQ

Core_NNNI-es_KKEE = target: T29, Core_NNNI-es_KKEE; test: two-hybrid library CCmax; conditions: mean of both orientations
T29 chain: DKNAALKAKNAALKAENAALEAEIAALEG

DKNEELKRENEELERKIERLKEKIRYLKE [P10SHb]
interaction score (P11SHb): 1.08
interaction score (P1SHb): -1.44
interaction score (P10SHb): 0.734
interaction score (P5SHb): 0.808
interaction score (P8SHb): -0.0171
interaction score (P3SHb): -1.86
interaction score (P6SHb): 1.07
interaction score (P9SHb): 1.97
interaction score (P4SHb): -0.49
interaction score (P7SHb): -0.582
interaction score (P2SHb): 0.782
interaction score (P12SHb): -0.4

DEIQQLEQKIQELEQEIQELEWKNQELKQ [4H264-bN]
interaction score (4H3364-bN): 0.517
interaction score (4H2931-bN): 1.31
interaction score (4H3381-bN): 0.605
interaction score (4H3041-bN): 1.54
interaction score (4H264-bN): -0.816
interaction score (4H796-bN): -0.162
interaction score (P10A-bN): -2.47
interaction score (4H56-bN): 0.479
interaction score (4H730-bN): 0.137
interaction score (4H949-bN): -0.338
interaction score (4H2859-bN): 1.92
interaction score (4H932-bN): -0.218
interaction score (4H2760-bN): -0.23
interaction score (4H3297-bN): 0.44
interaction score (4H570-bA): -2.9
interaction score (4H349-bN): 0.605

DENAALEAENAALEAKNAALKAKIAALKG [Core_NNNI-es_EEKK]
interaction score (Core_NNNI-es_KKEE): 2.38

— PMC10397247
